Experiment [1] concerns the target soluble biotinylated TcdB fragment (1401-1616) (Clostridioides difficile VP10463, UniProt P18177, biotin). Nature of the experiment: flow cytometry on cells. For orientation: A flow cytometer gives signals particle by particle.
The target of experiment [2] is Clostridium difficile toxin B (TcdB) (Clostridium difficile, UniProt P18177). Nature of the experiment: flow cytometry on cells.

Experimental findings from article PMC10983868 (bioRxiv, 2025) are described below.

Sequence of Clostridium difficile toxin B (TcdB) (P18177 whole entry): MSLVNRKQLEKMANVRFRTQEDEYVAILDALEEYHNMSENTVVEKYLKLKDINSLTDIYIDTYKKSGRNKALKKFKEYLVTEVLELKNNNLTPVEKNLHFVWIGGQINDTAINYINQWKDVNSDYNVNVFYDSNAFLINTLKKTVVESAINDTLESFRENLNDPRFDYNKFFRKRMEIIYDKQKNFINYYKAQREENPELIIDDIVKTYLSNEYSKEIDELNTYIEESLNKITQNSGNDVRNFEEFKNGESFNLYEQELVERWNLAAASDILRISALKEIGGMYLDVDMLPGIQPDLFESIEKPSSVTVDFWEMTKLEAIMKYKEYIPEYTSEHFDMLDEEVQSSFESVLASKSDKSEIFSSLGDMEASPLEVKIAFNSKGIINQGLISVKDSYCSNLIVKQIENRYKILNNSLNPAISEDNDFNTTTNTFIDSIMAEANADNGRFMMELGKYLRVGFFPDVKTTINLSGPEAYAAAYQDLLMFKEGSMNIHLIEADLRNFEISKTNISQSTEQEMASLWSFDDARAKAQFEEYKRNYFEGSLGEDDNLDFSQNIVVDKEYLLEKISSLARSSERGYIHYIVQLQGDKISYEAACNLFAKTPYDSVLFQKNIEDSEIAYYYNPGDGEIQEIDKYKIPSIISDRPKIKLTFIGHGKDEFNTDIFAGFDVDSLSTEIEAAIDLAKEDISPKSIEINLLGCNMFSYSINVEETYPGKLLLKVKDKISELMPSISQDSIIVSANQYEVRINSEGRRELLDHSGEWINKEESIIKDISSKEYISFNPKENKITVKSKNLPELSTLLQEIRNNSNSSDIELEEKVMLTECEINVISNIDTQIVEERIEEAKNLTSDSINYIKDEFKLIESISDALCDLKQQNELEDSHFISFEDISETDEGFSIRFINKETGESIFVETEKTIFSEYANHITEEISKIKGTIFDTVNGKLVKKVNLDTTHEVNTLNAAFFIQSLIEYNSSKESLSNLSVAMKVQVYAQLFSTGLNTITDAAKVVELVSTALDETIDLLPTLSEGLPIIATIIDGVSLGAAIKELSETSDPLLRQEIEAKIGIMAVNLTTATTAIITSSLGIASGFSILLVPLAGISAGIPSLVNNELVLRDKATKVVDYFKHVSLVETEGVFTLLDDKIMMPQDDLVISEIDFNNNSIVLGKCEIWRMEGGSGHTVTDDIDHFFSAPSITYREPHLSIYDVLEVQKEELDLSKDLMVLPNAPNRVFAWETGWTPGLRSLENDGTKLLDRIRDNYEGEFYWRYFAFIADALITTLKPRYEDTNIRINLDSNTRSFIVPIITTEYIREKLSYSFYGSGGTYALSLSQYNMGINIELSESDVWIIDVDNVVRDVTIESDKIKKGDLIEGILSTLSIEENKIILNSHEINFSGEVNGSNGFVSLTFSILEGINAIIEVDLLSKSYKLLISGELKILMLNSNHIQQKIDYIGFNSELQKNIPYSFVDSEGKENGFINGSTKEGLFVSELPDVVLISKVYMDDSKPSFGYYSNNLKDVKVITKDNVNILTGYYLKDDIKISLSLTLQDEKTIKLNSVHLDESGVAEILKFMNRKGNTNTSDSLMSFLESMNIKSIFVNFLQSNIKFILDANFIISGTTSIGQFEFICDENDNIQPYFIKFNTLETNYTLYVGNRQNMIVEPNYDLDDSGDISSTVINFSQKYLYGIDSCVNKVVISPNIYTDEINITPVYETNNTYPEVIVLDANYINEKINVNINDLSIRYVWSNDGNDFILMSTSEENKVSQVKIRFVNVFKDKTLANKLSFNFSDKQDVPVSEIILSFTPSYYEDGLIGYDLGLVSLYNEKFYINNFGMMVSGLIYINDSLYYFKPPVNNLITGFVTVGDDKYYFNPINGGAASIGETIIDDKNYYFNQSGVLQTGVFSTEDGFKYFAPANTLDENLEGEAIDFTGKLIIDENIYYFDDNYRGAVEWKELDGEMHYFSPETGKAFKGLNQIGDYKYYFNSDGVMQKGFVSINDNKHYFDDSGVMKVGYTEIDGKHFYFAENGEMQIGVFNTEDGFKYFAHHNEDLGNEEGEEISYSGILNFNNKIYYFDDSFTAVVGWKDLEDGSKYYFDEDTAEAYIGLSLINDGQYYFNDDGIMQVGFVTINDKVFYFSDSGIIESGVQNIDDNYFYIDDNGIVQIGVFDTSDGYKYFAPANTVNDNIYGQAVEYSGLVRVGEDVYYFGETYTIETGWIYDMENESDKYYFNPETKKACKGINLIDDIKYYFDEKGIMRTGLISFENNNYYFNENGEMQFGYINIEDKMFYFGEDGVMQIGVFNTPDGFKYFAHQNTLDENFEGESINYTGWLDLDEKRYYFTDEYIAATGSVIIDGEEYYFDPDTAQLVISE
Sequence of soluble biotinylated TcdB fragment (1401-1616) (P18177 1401-1616): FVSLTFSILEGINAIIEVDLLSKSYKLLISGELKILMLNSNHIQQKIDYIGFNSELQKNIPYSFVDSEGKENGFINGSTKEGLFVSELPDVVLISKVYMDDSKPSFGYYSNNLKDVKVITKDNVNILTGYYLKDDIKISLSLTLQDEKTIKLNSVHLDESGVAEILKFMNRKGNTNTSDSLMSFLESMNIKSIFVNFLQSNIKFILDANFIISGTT

B1: scFv4-C-Myc construct displayed on yeast (scFv, V domains shown)
VH: EVQLVESGGGLVQPGGSLRLSCAASGFDLKEKYIHWVRQAPGKGLEWVARINVKTGSTRYADSVKGRFTISADTSKNTAYLQMNSLRAEDTAVYYCSRENRFGALTVWGQGTLVTVSS
VL: DIQMTQSPSSLSASVGDRVTITCTTSSYVPMLVSWYQQKPGKAPKLLIYSSVIRAPGVPSRFSGSRSGTDFTLTISSLQPEDFATYYCSVLQKDGNLVFGQGTKVEIK
In the case of B1, the binding result in experiment [1] and in experiment [2] was “binds” each time.
